{"source": "patent US8003357B2", "about": "“Acidophilic enzymes” (Helmholtz-Zentrum Fuer Infektionsforschung GmbH, priority 2005, dated 2011)", "type_in_all_cases": "biochemical", "key": {"[1]": {"assay": "pH and temperature dependence, stability and activity of recombinant acidic enzymes", "settings": "for enzymatic stability at elevated temperatures: FIG. 2, LigFA pH 3.0, EstFA and αGluFA pH 2.0 at 40 and 50° C., GlyFA1 and GlyFA2 pH 4.0 at 40° C.; for Optimum temperature: measured at optimum pH", "procedure": "The acidic enzymes according to the invention were expressed in E. coli using the genomiccoding sequence for the respective enzyme from Ferroplasma acidiphilum, which are described in detail below. For enzymatic conversions, reaction conditions were in 100 mM sodium acetate buffer, 100 mM citrate buffer, 100 mM HEPES buffer for 2 minutes at 30° C., using p-nitrophenol propionate as the substrate for esterase, starch in the case of glycosidases, and HindIII digested λ DNA for ligase.\nThe activity was assayed using p-nitrophenol propionate as a substrate for esterase, starch for αGluFA and GlyFA1, GlyFA2, and HindIII digested λ DNA for LigFA.\nThe acidic enzymes according to the invention in vitro show similar elevated reaction temperatures. Substrates were as described for FIG. 2 above.\nAn overview of catalytic and molecular properties of acidic enzymes that were heterologously expressed in E. coli is given in the following Table III: […]"}, "[2]": {"assay": "Fe2+ content (ICP-MS) and Fe2+ dependence of activity, dialysis against EDTA", "settings": "relative to wild type = 100; after dialysis against 1 mM EDTA; 100 mM sodium citrate, 10 mM FeCl2", "procedure": "The UV-VIS absorption spectra of purified acidic enzymes are shown in FIG. 4, wherein the uninterrupted lines refer to Fe^2+ containing enzymes and the interrupted lines refer to enzymes after dialysis against EDTA containing buffer. The λ-max values found at ca. 572 nm correlate with the Fe^2+ content, i.e. disappear after incubation with EDTA or DTT for 24 h. ICP-MS analysis confirmed the presence of 0.82±0.10 mol Fe in EstFA, 0.34±0.08 mol Fe in αGluFA, […] and 0.63±0.09 mol Fe in LigFA.\nIn FIG. 5, relative activities of acidic enzymes with varying content of Fe^2+ are shown. For analysis, purified enzymes were incubated in 1 mM EDTA. At time intervals indicated, two aliquots were removed, one was used for hydrolysis of respective substrates, the other for ICP-MS analysis of Fe. For relative activities, activities before incubation with EDTA were used as 100% values.\nWhen further investigating the dependence of the acidic enzymes according to the invention on Fe^2+, relative activity for EstFA, αGluFA and LigFA were investigated for their natural Fe^2+ content, e.g. wild-type, which was set to 100%, in comparison to the activity after dialysis against a 1 mM EDTA containing buffer."}, "[3]": {"assay": "Transglucosylation of maltose catalyzed by αGluFA", "text": "αGluFA is also suitable for the transfer of glucosyl groups from maltose to selectively produce a maltotriose. […] The reaction was followed by HPLC measurements."}, "[4]": {"settings": "measured at optimum temperature"}}}
{"molecule": "αGluFA: acidic glucosidase from Ferroplasma acidiphilum, 531 amino acids, Seq ID No. 11 (protein, listed as Ferroplasma acidiphilum, CDS (1)..(1596) alpha glu FA, in Figure 11 designated sequence 5a) INSLYILNHKVIIAVAVSAILIAMVFAGANIPYPGYNPTDHLISGKHPISNVSEVPKNFTLSGNVSNSNNNLPLSGTITVSNSTMSRTFNTSSNGSYNITLPQGNYSISSSIPGFQNYSSTINLDSNKTQNISTPPATTIGNGINQVPGSTNVSTLVPYLNNSIMSGGLNTDNITGTFDKNITIDLGKKLNNTQFVVLMKLDGAVYSYNWVTNGSGMAKLFLKYSGNYTMSAYTLYYNSSVIHYNTANNDTARFNMTERITFISSVILQSAVPLHDNSSVANSTLTVKGGVFSVPSLSVNSNLTGTYYKYEVPVGFYNFAYSNAHYVSKNFGVDVTGNSTVNKTIDPYLISINIRNNTGNTFNYTLGSTFYSGNGIHMATSGITTLLVFHDGKIVYDNTILLTSANPYYQLNLTISNKNLTFNGIETDSTNLSIVYSGNVTSNFYIASLEFENFSTSATNGMIIISGAASGSYPLDSGLYTYNMSQSLPTSAGNLTIKLVYDNDSKVSTDGRMTVEVYGYNISTLGNYITE", "values": [{"measurement": "enzymatic stability at elevated temperatures", "setting": "[1]", "value": "good stability"}, {"measurement": "enzymatic activity retained", "setting": "[1]; at 65° C.", "value": "approximately 50%"}, {"measurement": "temperature up to which the enzyme was stable", "setting": "[1]; for 60 minutes", "value": "up to 60 °C"}, {"measurement": "Optimum pH", "setting": "[1]; in the presence of Fe2+", "value": 2.0}, {"measurement": "Optimum temperature", "setting": "[1]", "value": 60, "unit": "°C"}, {"measurement": "Optimum pH", "setting": "[1]; [4]", "value": "2.5-3.0"}, {"measurement": "original activity retained", "setting": "[1]; pH 1.5 to 3.9, incubation at 20° C. over 24 hours", "value": "more than 80%"}, {"measurement": "activity, +EDTA", "setting": "[2]", "value": 5.40, "unit": "%"}, {"measurement": "percentage of transglucosylated maltose", "setting": "[3]; over the course of the reaction", "value": "more than 70%"}, {"measurement": "product selectivity of synthesis", "setting": "[3]; pH 3.0, up to 300 g/L maltotriose", "value": "selectively synthesizes maltotriose"}, {"measurement": "maltose", "setting": "[3]; reaction time 5", "value": 456, "unit": "g/L"}, {"measurement": "maltotriose", "setting": "[3]; reaction time 5", "value": 88, "unit": "g/L"}, {"measurement": "percentage of maltose transglycosylated", "setting": "[3]; reaction time 5", "value": 70.3, "unit": "%"}, {"measurement": "glucose", "setting": "[3]; reaction time 5, 600 g/L maltose, pH 3.0, 50° C.", "value": 59, "unit": "g/L"}, {"measurement": "glucose", "setting": "[3]; reaction time 10", "value": 76, "unit": "g/L"}, {"measurement": "maltose", "setting": "[3]; reaction time 10", "value": 402, "unit": "g/L"}, {"measurement": "maltotriose", "setting": "[3]; reaction time 10", "value": 122, "unit": "g/L"}, {"measurement": "percentage of maltose transglycosylated", "setting": "[3]; reaction time 10", "value": 72.7, "unit": "%"}, {"measurement": "glucose", "setting": "[3]; reaction time 20", "value": 112, "unit": "g/L"}, {"measurement": "maltose", "setting": "[3]; reaction time 20", "value": 302, "unit": "g/L"}, {"measurement": "maltotriose", "setting": "[3]; reaction time 20", "value": 186, "unit": "g/L"}, {"measurement": "percentage of maltose transglycosylated", "setting": "[3]; reaction time 20", "value": 74.5, "unit": "%"}, {"measurement": "glucose", "setting": "[3]; reaction time 30", "value": 153, "unit": "g/L"}, {"measurement": "maltose", "setting": "[3]; reaction time 30", "value": 199, "unit": "g/L"}, {"measurement": "maltotriose", "setting": "[3]; reaction time 30", "value": 248, "unit": "g/L"}, {"measurement": "percentage of maltose transglycosylated", "setting": "[3]; reaction time 30", "value": 73.3, "unit": "%"}, {"measurement": "glucose", "setting": "[3]; reaction time 60", "value": 165, "unit": "g/L"}, {"measurement": "maltose", "setting": "[3]; reaction time 60", "value": 159, "unit": "g/L"}, {"measurement": "maltotriose", "setting": "[3]; reaction time 60", "value": 276, "unit": "g/L"}, {"measurement": "percentage of maltose transglycosylated", "setting": "[3]; reaction time 60", "value": 74.7, "unit": "%"}, {"measurement": "glucose", "setting": "[3]; reaction time 180", "value": 185, "unit": "g/L"}, {"measurement": "maltose", "setting": "[3]; reaction time 180", "value": 111, "unit": "g/L"}, {"measurement": "maltotriose", "setting": "[3]; reaction time 180", "value": 304, "unit": "g/L"}, {"measurement": "percentage of maltose transglycosylated", "setting": "[3]; reaction time 180", "value": 74.0, "unit": "%"}]}
{"molecule": "EstFA: acidophilic, Fe2+ dependent esterase from Ferroplasma acidiphilum, 308 amino acids, Seq ID No. 6 (protein, listed as Ferroplasma acidiphilum, PEPTIDE (1)..(531) alpha Glu FA) INSLYILNHKVIIAVAVSAILIAMVFAGANIPYPGYNPTDHLISGKHPISNVSEVPKNFTLSGNVSNSNNNLPLSGTITVSNSTMSRTFNTSSNGSYNITLPQGNYSISSSIPGFQNYSSTINLDSNKTQNISTPPATTIGNGINQVPGSTNVSTLVPYLNNSIMSGGLNTDNITGTFDKNITIDLGKKLNNTQFVVLMKLDGAVYSYNWVTNGSGMAKLFLKYSGNYTMSAYTLYYNSSVIHYNTANNDTARFNMTERITFISSVILQSAVPLHDNSSVANSTLTVKGGVFSVPSLSVNSNLTGTYYKYEVPVGFYNFAYSNAHYVSKNFGVDVTGNSTVNKTIDPYLISINIRNNTGNTFNYTLGSTFYSGNGIHMATSGITTLLVFHDGKIVYDNTILLTSANPYYQLNLTISNKNLTFNGIETDSTNLSIVYSGNVTSNFYIASLEFENFSTSATNGMIIISGAASGSYPLDSGLYTYNMSQSLPTSAGNLTIKLVYDNDSKVSTDGRMTVEVYGYNISTLGNYITE", "values": [{"measurement": "stability of purified enzyme", "setting": "[1]; 20 mM citrate buffer, pH 1.5, room temperature", "value": "stable"}, {"measurement": "enzymatic stability at elevated temperatures", "setting": "[1]", "value": "good stability"}, {"measurement": "Optimum temperature", "setting": "[1]", "value": 50, "unit": "°C"}, {"measurement": "Optimum pH", "setting": "[1]; [4]", "value": "2.0-3.5"}, {"measurement": "stability at pH values above 5.0", "setting": "[1]; pH above 5.0", "value": "rapidly inactivated"}, {"measurement": "activity, +EDTA", "setting": "[2]", "value": 0.30, "unit": "%"}]}
